Reference: patent US8247227B2, “Dendritic cell precursors” (The Cleveland Clinic Foundation, priority 2006, dated 2012)

Experiments:
BM cells [1] = assay: Step 2 culture: DC maturation and IL-12 production upon CpG+LPS after Step 1 conditioning; assay type: cell-based, mouse
Excerpt: Following Step 1 conditioning, BM cultures were washed thoroughly and exposed to TLR agonists to test the cells' potential for DC maturation and IL-12 production during Step 2 culture. Since TLR9 and TLR4 were invariably expressed by mouse BM cells at the end of Step 1 cultures (not shown), we standardly employed CpG (ODN 1826) and lipopolysaccharide (LPS) to stimulate coordinate activation of MyD88 and TRIF pathways (Napolitani, G. et al. Nat. Immunol. 6, 769-776 (2005)).
(§1) Step 2 was initiated (0 hr) in CM, rmGMCSF and optionally rmIL4. Step 2 cultures were performed in 24 well cluster plates, 4 million BM cells per well in 2 ml CM. DC1 polarization stimuli such as CpG (ODN 1826, 5 μM) and LPS 50 ng/ml were added between 18-24 hrs, and cells harvested at 40-44 hrs for analyses. When included, immunosuppressive agents rmIL10, rmVEGF, rhTGFβ1 or PGE2 were added between 0 and 24 hrs of Step 2 culture at doses specified in Results. Alternatively, particulate tumor cells, either viable unirradiated, viable irradiated (10,000 cGy), or killed freeze-thawed lysate (Cohen, P A et al. Cancer Res. 54, 1055-1058 (1994)), were added to Step 2 BM cells. Viable tumor cells were sometimes labelled with CFSE (Molecular Probes, Eugene, Oreg.) to allow their identification and exclusion during subsequent FACS analyses (Peng, L. et al. J. Immunol. 169, 4811-4821 (2002)).
For routine multicolor FACS analyses, BM cells were cultured in anti-CD32 mAb plus normal mouse IgG to block FcRs, then directly stained with conjugated specific mAbs or isotype controls as listed in the figures (BD-Pharmingen, Mountain View, Calif.) (Peng, L. et al. J. Immunol. 165, 5738-5749 (2000)). When additionally assessing IL12 production at the cellular level, the last 16 hrs of Step 2 culture were performed in monensin (Golgistop™, BD-PharMingen). Then, following FcR block and direct staining of surface molecules, cells were fixed in formalin and permeabilized in tween (CytoPerm/CytoFix™, PharMingen), then additionally stained with PE-anti-mouse IL12p40 (BD-Pharmingen) or isotype control.
Assessments of supernatant contents of mIL12p70 heterodimer were performed with BD-Pharmingen reagents. mIFNα and mIFNβ ELISAs were performed with kits from PBL Biomedical Laboratories (New Brunswick, N.J.).

BM cells [2] = assay: Step 2 culture: spontaneous DC maturation without exogenous maturation stimuli; assay type: cell-based, mouse
Excerpt: DC differentiation typically arrests at the immature stage unless DCs are exposed to additional signals such as CD40 ligation, calcium ionophore or TLR agonists (Xu, S. et al. J. Immunol. 171, 2251-2261 (2003); Bonifaz, L. et al. J. Exp. Med. 196, 1627-1638 (2002); Napolitani, G. et al. Nat. Immunol. 6, 769-776 (2005); Czerniecki, B J et al. J. Immunol. 159, 3823-3837 (1997); Mailliard, R B et al. Cancer Res. 64, 5934-5937 (2004)). […] Instead, uniform upregulation of MHC Class II and CD11c ensued within hours of transfer from Flt3L+IL6 into GMCSF, followed by upregulation of CD40, co-stimulatory molecules and CCR7 between 48 and 72 hours of Step 2 culture.
as §1

conditioned BM cells = assay: Tumor contact during Step 2 culture: DC maturation and IL12 production; assay type: cell-based, mouse
Experimental: Because DC ingestion of cellular material can induce tolerogenic DCs (Bonifaz, L. et al. J. Exp. Med. 196, 1627-1638 (2002)), we tested the impact of exposing DCs to large volumes of tumor at 16-24 hours of Step 2 culture in GMCSF, to determine tumor's impact on subsequent spontaneous maturation. To cluster plate wells each containing 4 million conditioned BM cells, we added either 4 million freeze-thawed (killed) tumor cells; 3 million irradiated (10,000 cGy), trypan-excluding tumor cells; or 2 million unirradiated, actively proliferating tumor cells. Given the much larger dimensions of viable tumor cells compared to the cultured BM cells, these represented voluminous tumor challenges.
as §1

L-selectin^low T cells = assay: T cell co-cultures with variously conditioned DCs; assay type: cell-based, mouse; settings: DCs prepared after the named Step 1 conditioning
Experimental: Step 2 DC cultures were performed in rGMCSF and rIL-4 with irradiated MCA-203 cells added at 24 hr and CpG+LPS added at 44 hr. Four hours later, DCs were harvested for co-culture with L-selectin^low T cells freshly harvested from MCA-203 tumor-bearing mice. T cells were co-cultured with DCs at an 8:1 ratio or were activated with immobilized anti-CD3. […] Cultures shown also received exogenous IL-2, IL-7 and IL-15.
Cultures shown also received exogenous IL2, IL7 and IL15.
Conditioned DC precursors were transferred to Step 2 culture, exposed to viable irradiated tumor, optionally further activated with CpG+LPS, then co-cultured with tolerized TDLN T cells from mice bearing the relevant tumor.
Prior to harvest of T cells from tumor-bearing mice, DCs were prepared under various Step 1 conditions in CM; Step 2 was performed in 1% non heat-deactivated mouse serum instead of FCS (CM-MS), during which BM cultures were exposed to viable irradiated tumor cells, then CpG+LPS as denoted in Results. On the day of DC harvest, T cells were freshly harvested from the tumor-draining lymph nodes of mice bearing 12 day tumors. The L-selectin^low (tolerized pre-effector) fraction of T cells was isolated by negative selection as described previously (Peng, L. et al. J. Immunol. 165, 5738-5749 (2000); Wang, L. et al. J. Translational Med. 2, 41 (2004)), and cultured in CM-MS with immobilized anti-CD3 (Peng, L. et al. J. Immunol. 165, 5738-5749 (2000); Wang, L. et al. J. Translational Med. 2, 41 (2004)) or variously conditioned DCs. Beginning on day 2 of T cell culture, some groups also received rhIL2 (24 I.U./m1), or rhIL2, rhIL7 (50 ng/ml) and rhIL15 (5 ng/ml). T cells were harvested for assays and adoptive therapy after 12 days of culture.

[3] = system: CD11c^pos (committed DC) subpopulation; assay: In vivo responses to TLR agonists; set-up: species or system mouse; settings: i.p. treatment
Experimental: FIG. 21 is a bar graph showing in vivo responses to TLR agonists. Mice were injected for 6 days with 10 mcg i.p. rhFlt3-L or no treatment. On the subsequent day, some mice were treated with a single i.p. injection for rmGMCSF 12 mcg. On the subsequent day, some mice were injected with i.p. with 50 mcg CpG (ODN 1826) and 100 mcg pI:C. […] The next day, mice were euthanized and spleens counted and analyzed by FACS for the activation status of the CD11c^pos (committed DC) subpopulation. MHC Class II, CD40, and CD86 (B7.2) were co-analyzed.

STAT3KO BM = assay: Conditioning of STAT3 knockout BM; assay type: cell-based, mouse
Experimental: (§2) FIG. 18 illustrates responses of STAT knockout vs. wildtype littermate BM to Flt3-L+IL-6 vs. GMCSF-containing conditioning regiments. […] BM was obtained from KO mice or from matched wildtype LMs, placed in standard Step 1 cultures with Flt3-L+IL-6, Flt3-L+IL-6+GMCSF, or GMCSF alone as conditioning agents, then placed in 48 hr Step 2 cultures with GMCSF+IL-4 with CpG+LPS included during the final 18 hours. […] Data are presented as mean±s.d. of 3 replicates and are representative of three (STAT5KO vs LM) or two (STAT3KO vs LM) independently performed experiments;
(§3) We examined how STAT knockout BM preparations responsed to Flt3L+IL-6 conditioning. […] Therefore, the proliferative and differentiative impacts of Flt3-L+IL-6 conditioning were absolutely STAT3-dependent, whereas final phenotypic maturation and DC1-polarization were at least partially STAT5-dependent.
(§4) We also examined how STATKO BM preparations responded to GMCSF-containing Step 1 regimens (GMCSF alone, Flt3-L+GMCSF, or Flt3-L+GMCSF+IL-6). […] Therefore, all tested GMCSF-containing regimens promoted STAT5-dependent DC differentiation, with later phenotypic maturation and DC1-polarization proving susceptible to inhibition through STAT3.

STAT5KO BM = assay: Conditioning of STAT5 knockout BM; assay type: cell-based, mouse
Experimental: as §2, §3, §4

B1: granulocyte-macrophage colony stimulating factor (protein, UniProt P01587 18-141, looked up)
Granulocyte-macrophage …: APTRSPITVTRPWKHVEAIKEALNLLDDMPVTLNEEVEVVSNEFSFKKLTCVQTRLKIFEQGLRGNFTKLKGALNMTASYYQTYCPPTPETDCETQVTTYADFIDSLKTFLTDIPFECKKPGQK
notes: murine GMCSF from Immunex
Step 2 response to TLR agonists (DC maturation) after Step 1 conditioning (BM cells [1]; CpG+LPS stimulation): infrequent and/or blunted responses to the TLR agonists | effect of GMCSF addition during Step 2 culture (BM cells [1]; GMCSF added in Step 2 only): not at all inhibitory | effect of co-conditioning with GMCSF on Flt3L+IL6's licensing impact (BM cells [1]; GMCSF present in Step 1): abrogated | effect of GMCSF as Step 1 agent on licensing of spontaneous DC maturation by Flt3L or Flt3L+IL6 (BM cells [2]): fully abrogated | effect of GMCSF as Step 1 agent on licensing of tumor-induced activation by Flt3L+IL6 (conditioned BM cells): fully abrogated | effect of conditioned DCs on tolerized T cell co-cultures (proliferation / toxicity) (L-selectin^low T cells): ineffective for propagating the T cells | activation of maturation markers MHC Class II, CD40, CD86 on CD11c^pos spleen cells [3]: further enhanced | survival / proliferation of STAT3KO BM in Step 1 conditioning (STAT3KO BM): normal proliferation kinetics | maturational and IL-12p70 response of STAT3KO DCs (STAT3KO BM; TLR stimulation, Step 2): abnormally heightened maturational and IL-12p70 response to TLR stimulation | proliferation and DC differentiation of STAT5KO BM (STAT5KO BM): strikingly ineffective for generating DCs
